Patent US10077295B2, “Glycoproteins having lipid mobilizing properties and therapeutic uses thereof” (Aston University, priority 2010, dated 2018)

Legend:
[1] = system: murine epididymal adipocytes; experiment: Lipolytic assay (glycerol release) in murine adipocytes; format: cell-based, mouse
Procedure: Cell Culture and Purification of ZAG. Single-cell suspensions of white adipocytes were prepared from minced adipose deposits by incubation at 37° C. for 2 h in Krebs-Ringer biocarbonate buffer containing 1.5 mgml^−1 collagenase, and 4% bovine serum albumin under an atmosphere of 95% oxygen: 5% CO2 as previously described. For time-course studies adipocytes were suspended in DMEM containing 10% fetal calf serum at a concentration of 10^5 cells ml^−1 and maintained under an atmosphere of 10% CO2 in air at 37° C. Human 293 cells transfected with a plasmid containing human ZAG were seeded at a concentration of 10^5 cells ml^−1 in FreeStyle medium and maintained under an atmosphere of 5% CO2 in air at 37° C. Maximal protein levels (16 μgml^−1) were obtained after 14 days of culture. The media (200 ml) was then centrifuged at 700 g for 15 min to remove cells and concentrated into a volume of 1 ml of sterile PBS using an Amicon Ultra-15 centrifugal filter with a 10 kDa cut-off After measurement of the protein concentration of the sample (about 2 mg) it was added to 2 g DEAE cellulose suspended in 20 ml of 10 mM Tris, pH8.8 and stirred at 4° C. for 2 h. ZAG being negatively charged binds to the DEAE cellulose, which was sedimented by centrifugation (1500 g for 15 min), and eluted by stirring with 20 ml 10 mM Tris, pH8.8 containing 0.3M NaCl for 30 min at 4° C. The supernatant was washed and concentrated to a volume of 1 ml in sterile PBS using the Amicon centrifugal filter.
Lipolytic assay. Samples to be assayed were incubated with 10^5 to 2×10^5 adipocytes for 2 h in 1 ml Krebs-Ringer bicarbonate buffer, pH 7.2. The concentration of glycerol released was determined enzymatically by the method of Wieland (Wieland, O. Glycerol UV method. In Methods of Enzymatic Analysis (ed. Bergmeyer, H.U.) (Academic Press, London, UK, pp 1404-1409, 1974)). Control samples containing adipocytes alone were analysed to determine the spontaneous glycerol release. Activity was expressed as μmol glycerol released/10^5 adipocytes/2 h.

human β1-AR = biological target: T1, human β1-AR (Homo sapiens, UniProt P08588); experiment: [125I] ZAG binding to crude membranes of CHO-K1 β1 cells
T1 construct: host or cells: CHO-K1
T1 sequence (P08588 whole entry): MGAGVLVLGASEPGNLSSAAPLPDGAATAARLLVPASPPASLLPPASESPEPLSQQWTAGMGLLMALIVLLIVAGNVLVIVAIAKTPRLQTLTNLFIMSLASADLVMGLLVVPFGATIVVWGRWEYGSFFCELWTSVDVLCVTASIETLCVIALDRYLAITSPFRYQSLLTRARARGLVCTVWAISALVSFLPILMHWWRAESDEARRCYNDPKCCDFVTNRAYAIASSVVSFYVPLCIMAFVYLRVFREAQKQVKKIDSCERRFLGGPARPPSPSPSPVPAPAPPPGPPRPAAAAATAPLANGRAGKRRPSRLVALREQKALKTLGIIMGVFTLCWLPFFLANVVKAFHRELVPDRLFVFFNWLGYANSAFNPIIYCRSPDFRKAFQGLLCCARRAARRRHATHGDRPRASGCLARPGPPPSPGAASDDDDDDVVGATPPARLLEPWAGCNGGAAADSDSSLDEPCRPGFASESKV
Procedure: [^125I] labelling of ZAG. One iodo bead that had been washed and dried was incubated with Na [^125I] (1 mCi per 100 μg protein) for 5 min in PBS, then ZAG (100 μg protein) was added and left for a further 15 min. The reaction was terminated by removal of the iodo bead, while free Na [^125I] was removed using a Sephadex G25 column eluted with 0.1MNaI. The [^125I] ZAG was concentrated against PBS using a Microcon microconcentrator with a filter cut-off of Mr 10,000. The specific activity of the [^125I] ZAG was 8 Cimg protein^1.
For binding studies cells were sonicated in 2 mM Tris HCl, pH7.5, containing […] and crude total membranes were pelleted by centrifugation (13,000 g; 15 min) at 4° C. Binding studies were carried out at 37° C. by incubating membranes (500 μg protein) in 0.4 ml 50 mM Tris HCl, pH 7.5, containing 0.5 mM MgCl2 for 60 min with various concentrations of [^125I] ZAG (3,000 to 15,000 cpm) in the absence or presence of 100 μM non-labelled ZAG. The membranes were then precipitated by centrifugation at 13000 g for 20 min, the supernatant was removed and the [^125I] bound to the pellet was quantitated using a Packard Corbra Model 5005 Auto-gamma counter. Binding was analysed using non-linear regression analysis (GraphPad Prism, Version 5.04). Specific binding was regarded as the amount of labelled ZAG displaced by non-radioactive ZAG.

ob/ob mice = ob/ob mice treated with ZAG i.v. with or without propanolol; format: in vivo, mouse; settings: ZAG alone
Procedure: Animals. […] Male mice (about 20 weeks of age) were grouped into three per cage and kept in an air conditioned room at 22±2° C., with ad libitum feeding of a rat and mouse breeding diet (Special Diet Services, Witham, UK) and tap water. Mice were administered ZAG (50 μg, i.v. in 100 μl PBS) or PBS daily with or without propanolol (40 mgkg^−1, po, daily) and body weight and food and water intake were determined, as well as urinary glucose excretion and body temperature, determined by the use of a rectal thermometer (RS Components, Northants, UK). A glucose tolerance test was performed on day 3. […] Blood samples were removed from the tail vein at 15, 30, 60 and 120 min after glucose administration and used for the measurements of glucose and insulin. At the end of the experiment the animals were terminated by cervical dislocation, tissues removed and rapidly frozen in liquid nitrogen, and maintained at −80° C.
To determine whether ZAG can increase insulin signalling the effect on Glut4 expression was determined.

[2] = system: epididymal adipocytes of male Wistar rats; experiment: Uptake of 2-deoxy-D-glucose into epididymal adipocytes of ZAG-treated rats; format: in vivo, rat; settings: rats treated for 10 days
Procedure: Glucose Uptake into Adipocytyes. Isolated adipocytes (5×10^4) were washed twice in 1 ml Krebs-Ringer bicarbonate buffer, pH 7.2 (KRBS) and further incubated for 10 min at room temperature in 0.5 ml KRBS containing 18.5 MBq 2-[1-^14C] deoxy-D-glucose and non-radioactive 2-deoxy-D-glucose to a final concentration of 0.1 mM. Uptake was terminated by the addition of 1 ml ice-cold glucose-free KRBS, and the cells were washed three times with 1 ml KRBS, lysed by addition of 0.5 ml 1M NaOH and left for at least 1 h at room temperature before the radioactivity was determined by liquid scintillation counting.

β3-AR = β3-AR (Homo sapiens, UniProt P13945); experiment: Cyclic AMP production in CHO-K1 cells transfected with β3-AR; format: cell-based; set-up: host or cells: CHO-K1; settings: CHO-K1 β3-AR
Chain of β3-AR (P13945 whole entry): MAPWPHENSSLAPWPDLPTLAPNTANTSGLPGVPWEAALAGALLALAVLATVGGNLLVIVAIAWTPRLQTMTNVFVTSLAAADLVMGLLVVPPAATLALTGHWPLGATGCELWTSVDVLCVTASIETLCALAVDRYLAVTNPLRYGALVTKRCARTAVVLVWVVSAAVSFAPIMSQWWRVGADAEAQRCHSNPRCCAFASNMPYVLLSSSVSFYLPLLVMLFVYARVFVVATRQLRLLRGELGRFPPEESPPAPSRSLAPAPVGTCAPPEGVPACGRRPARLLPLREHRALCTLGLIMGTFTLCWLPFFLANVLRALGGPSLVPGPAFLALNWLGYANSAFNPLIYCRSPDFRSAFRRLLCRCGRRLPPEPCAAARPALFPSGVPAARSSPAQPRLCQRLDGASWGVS
Procedure: Binding Studies and Cyclic AMP Determination. CHO-K1 cells transfected with the human β1- and β2-AR obtained from University of Nottingham, UK, while CHOK1 cells transfected with the β3-AR were obtained from Astra Zeneca, Macclesfield, Cheshire, UK. Gene expression was under the control of hygromycin, together with a β-gal reporter construct, selected for resistance to G418. They were maintained in DMEM supplemented with 2 mM glutamine, hygromycin B ([…]), G418 ([…]), and 10% FCS, under an atmosphere of 10% CO2 in air. To determine the effect of agonists on cyclic AMP production, cells were grown in 24-well plates containing 1 ml of nutrient medium.

B1: ZAG: recombinant full length human zinc-α2-glycoprotein (SEQ ID NO: 1) secreted by transfected HEK293F cells; lipid mobilizing factor (protein, listed as Homo sapiens)
chain: QENQDGRYSLTYIYTGLSKHVEDVPAFQALGSLNDLQFFRYNSKDRKSQPMGLWRQVEGMEDWKEDSQLQKAREDMETLKDIVEYYNDSNGSHVLQGRFGCEIENNRSSGAFWKYYYDGKDYIEFNKEIPAWVPFDPAAQITKQKWEAEPVYVQRAKAYLEEECPATLRKYLKYSKNILDRQDPPSVVVTSHQAPGEKKKLKCLAYDFYPGKIDVHWTRAGQVQEPELRGDVLHNGNGTYQSWVVVAVPPQDTAPYSCHVQHSSLAQPLVVPWEAS
[1]; compared with epididymal adipocytes
  lipolytic effect in adipocytes from subcutaneous and visceral deposits: considerably reduced
[1]; mouse adipocytes
  lipolysis in epididymal adipocytes: stimulated lipolysis
[1]; murine epididymal adipocytes
  effect of a single freezing and thawing cycle on lipolytic activity: destroyed
[1]; on a molar basis
  potency at inducing lipolysis compared with isoprenaline: more potent at inducing lipolysis than isoprenaline on a molar basis
Human β1-AR
  binding to the β1-AR: no binding
ob/ob mice
  effect on liver lipids: no effect on liver lipids
[2]
  uptake of 2-deoxyglucose into epididymal adipocytes: significant increase
β3-AR
  lowest concentration to stimulate cyclic AMP production: 350 nM
